Values quoted from earlier work, collected in PMC4980809.

Molecular target: titin ZR7 (Homo sapiens) (UniProt Q8WZ42)
Sequence (Q8WZ42 692-740): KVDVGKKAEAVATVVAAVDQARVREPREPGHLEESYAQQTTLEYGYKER

Chain of alpha-actinin-2 EF3/4 domain (P35609 823-894): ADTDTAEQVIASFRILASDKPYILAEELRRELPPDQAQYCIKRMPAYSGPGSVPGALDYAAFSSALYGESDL

Q: With “alpha-actinin-2 EF3/4 domain (from UniProt P35609)” as the substance, how does the Kd read?
A: 380 nM
